Earlier results on 3 sequences are cited in PMC7650819.

For data set [1], the target named is thrombin (human plasma) (Homo sapiens) (UniProt P00734+P00734). As to the kind of experiment: literature value. Particulars: AIR; ABB: 50 mM Tris-HCl, 140 mM NaCl, 1 mM MgCl2, 1% BSA, 0.05% Triton X-100, pH 7.4, overnight at 4 °C; aptamers refolded in 5 mM Tris-HCl, 1 M NaCl, 0.5 mM ….
The target in another data set is TGF-β1 (Homo sapiens) (UniProt P01137). Nature of the data set: literature value. The settings on record: DNA with phosphorothioates at positions marked by asterisks: CGCTCGGCTTCACGAGATTCGTGTC*GTTGTGTC*C*TGTA*C*C*C*GC*C*TTGA*C*C*A*GTC*A*C*TC*TA*GA*GC*A*TC*C*GGA*C*TG …; AIR; ABB: 50 mM Tris-HCl, 140 mM NaCl, 1 mM MgCl2, 1% BSA, 0.05% Triton X-100, pH 7.4, overnight at 4 °C; aptamers refolded in 5 mM Tris-HCl, 1 M NaCl, 0.5 mM E.
Chain of TGF-β1 (Homo sapiens) (P01137 279-390): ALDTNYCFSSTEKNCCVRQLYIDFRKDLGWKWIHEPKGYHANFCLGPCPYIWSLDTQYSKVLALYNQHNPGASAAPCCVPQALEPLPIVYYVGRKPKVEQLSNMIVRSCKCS

A word on the Kd: it is the constant that tells how readily two partners part at equilibrium. Take “TTTTTTTTTTTTTTTTTTTTAGTCCGTGGTAGGGCAGGTTGGGGTGACT [Thrombin 29-mer aptamer]”: the equilibrium dissociation constant (Kd) in data set [1] is 0.5 nM.

As to “TTTTTTTTTTTTTTTTTTTTGGTTGGTGTGGTTGG [Thrombin 15-mer aptamer]”, the dissociation constant (Kd) in data set [1] was 100 nM.

Consider “TTTTTTTTTTTTTTTTTTTTCGCTCGGCTTCACGAGATTCGTGTCGTTGTGTCCTGTACCCGCCTTGACCAGTCACTCTAGAGCATCCGGACTG [TGF-β1 thioaptamer]”, for which the Kd with TGF-β1 (Homo sapiens) was 90 nM.
